Reference: US11541107B2, “Peptides and T cells for use in immunotherapeutic treatment of various cancers” (Immatics Biotechnologies GmbH, priority 2015, dated 2023)

Legend:
HLA-A*02 = HLA-A*02 (Homo sapiens, UniProt P04439, D140Y/D185E/D98H/E176V/E277Q/G131W/G231S/I119V/I121R/I166T/I218V/L300P/N151K/N90K/P208A/P217A/Q86G/Q94H/R138H/R169H); assay: MHC binding assay, UV-ligand exchange with beta2m ELISA, HLA-A*02; settings: binding to HLA-A*02 ranged by peptide exchange yield (UV-ligand exchange, beta2m ELISA)
Text: Candidate peptides for T cell based therapies according to the present invention were further tested for their MHC binding capacity (affinity). The individual peptide-MHC complexes were produced by UV-ligand exchange, where a UV-sensitive peptide is cleaved upon UV-irradiation, and exchanged with the peptide of interest as analyzed. Only peptide candidates that can effectively bind and stabilize the peptide-receptive MHC molecules prevent dissociation of the MHC complexes. To determine the yield of the exchange reaction, an ELISA was performed based on the detection of the light chain (ß2 m) of stabilized MHC complexes. The assay was performed as generally described in Rodenko et al. (Rodenko et al., 2006).
96 well MAXISorp plates (NUNC) were coated over night with 2 ug/ml streptavidin in PBS at room temperature, washed 4× and blocked for 1 h at 37° C. in 2% BSA containing blocking buffer. […] Peptide-MHC monomers of the UV-exchange reaction were diluted 100 fold in blocking buffer. Samples were incubated for 1 h at 37° C., washed four times, incubated with 2 ug/ml HRP conjugated anti-β2 m for 1h at 37° C., washed again and detected with TMB solution that is stopped with […]. Absorption was measured at 450 nm. Candidate peptides that show a high exchange yield (preferably higher than 50%, most preferred higher than 75%) are generally preferred for a generation and production of antibodies or fragments thereof, and/or T cell receptors or fragments thereof, as they show sufficient avidity to the MHC molecules and prevent dissociation of the MHC complexes.

CD8+ T cells = assay: In vitro T-cell priming assay (aAPCs loaded with peptide/MHC and anti-CD28, pMHC multimer readout; HLA-A*02 and HLA-A*24); assay type: cell-based, human; settings: in vitro immunogenicity of HLA class I peptides; share of positive wells after stimulation of CD8+ T cells of healthy donors
Text: In order to obtain information regarding the immunogenicity of the TUMAPs of the present invention, the inventors performed investigations using an in vitro T-cell priming assay based on repeated stimulations of CD8+ T cells with artificial antigen presenting cells (aAPCs) loaded with peptide/MHC complexes and anti-CD28 antibody.
In order to perform in vitro stimulations by artificial antigen presenting cells loaded with peptide-MHC complex (pMHC) and anti-CD28 antibody, the inventors first isolated CD8+ T cells from fresh HLA-A*02 leukapheresis products via positive selection using CD8 microbeads (Miltenyi Biotec, Bergisch-Gladbach, Germany) of healthy donors obtained from the University clinics Mannheim, Germany, after informed consent.
PBMCs and isolated CD8+ lymphocytes were incubated in T-cell medium (TCM) until use consisting of RPMI-Glutamax (Invitrogen, Karlsruhe, Germany) supplemented with 10% heat inactivated human AB serum (PAN-Biotech, Aidenbach, Germany), 100 U/ml Penicillin/100 μg/ml Streptomycin (Cambrex, Cologne, Germany), 1 mM sodium pyruvate (CC Pro, Oberdorla, Germany), 20 μg/ml Gentamycin (Cambrex). 2.5 ng/ml IL-7 (PromoCell, Heidelberg, Germany) and 10 U/ml IL-2 (Novartis Pharma, Nürnberg, Germany) were also added to the TCM at this step.
Generation of pMHC/anti-CD28 coated beads, T-cell stimulations and readout was performed in a highly defined in vitro system using four different pMHC molecules per stimulation condition and 8 different pMHC molecules per readout condition.
The purified co-stimulatory mouse IgG2a anti human CD28 Ab 9.3 (Jung et al., 1987) was chemically biotinylated using Sulfo-N-hydroxysuccinimidobiotin as recommended by the manufacturer (Perbio, Bonn, Germany). Beads used were 5.6 μm diameter streptavidin coated polystyrene particles (Bangs Laboratories, Illinois, USA).
pMHC used for positive and negative control stimulations were A*0201/MLA-001 (peptide […] (SEQ ID NO. 418) from modified Melan-A/MART-1) and A*0201/DDX5-001 ([…] from DDX5, SEQ ID NO. 419), respectively.
800.000 beads/200 μl were coated in 96-well plates in the presence of 4×12.5 ng different biotin-pMHC, washed and 600 ng biotin anti-CD28 were added subsequently in a volume of 200 μl. Stimulations were initiated in 96-well plates by co-incubating 1×10^6 CD8+ T cells with 2×10^5 washed coated beads in 200 μl TCM supplemented with 5 ng/ml IL-12 (PromoCell) for 3 days at 37° C. Half of the medium was then exchanged by fresh TCM supplemented with 80 U/ml IL-2 and incubating was continued for 4 days at 37° C. This stimulation cycle was performed for a total of three times. For the pMHC multimer readout using 8 different pMHC molecules per condition, a two-dimensional combinatorial coding approach was used as previously described (Andersen et al., 2012) with minor modifications encompassing coupling to 5 different fluorochromes. Finally, multimeric analyses were performed by staining the cells with Live/dead near IR dye (Invitrogen, Karlsruhe, Germany), CD8-FITC antibody clone SK1 (BD, Heidelberg, Germany) and fluorescent pMHC multimers. For analysis, a BD LSRII SORP cytometer equipped with appropriate lasers and filters was used. Peptide specific cells were calculated as percentage of total CD8+ cells. Evaluation of multimeric analysis was done using the FlowJo software (Tree Star, Oregon, USA). In vitro priming of specific multimer+CD8+ lymphocytes was detected by comparing to negative control stimulations.
Exemplary flow cytometry results after TUMAP-specific multimer staining for 2 peptides of the invention are shown in FIGS. 3A-3B together with corresponding negative controls. Results for 5 peptides from the invention are summarized in Table12A. Exemplary flow cytometry results after TUMAP-specific multimer staining for 7 peptides of the invention are shown in FIGS. 4A-4C and FIGS. 5A-5D together with corresponding negative controls.

Peptide exchange (HLA-A*02)	Substance	wells (CD8+ T cells)
++++ (>=75% = ++++)	79 (SLVPLQILL; listed as Homo sapiens) [compound 79]	–
++ (20%-49% = ++)	328 (SVDSAPAAV; listed as Homo sapiens) [compound 328]	–
+++ (50%-75% = +++)	75 (ILDNVKNLL; listed as Homo sapiens) [compound 75]	–
++++ (>=75% = ++++)	21 (SLYHRVLLY; listed as Homo sapiens) [compound 21]	–
++++ (>=75% = ++++)	36 (KLYGIEIEV; listed as Homo sapiens) [compound 36]	–
+++ (50%-75% = +++)	71 (GLITVDIAL; listed as Homo sapiens) [compound 71]	–
+++ (50%-75% = +++)	87 (YLTEVFLHVV; listed as Homo sapiens) [compound 87]	–
+++ (50%-75% = +++)	53 (SLLSHVIVA; listed as Homo sapiens) [compound 53]	–
+++ (50%-75% = +++)	54 (FINPKGNWLL; listed as Homo sapiens) [compound 54]	–
+++ (50%-75% = +++)	85 (STLDGSLHAV; listed as Homo sapiens) [compound 85]	–
+++ (50%-75% = +++)	84 (FLEEEITRV; listed as Homo sapiens) [compound 84]	–
++ (20%-49% = ++)	25 (IQADDFRTL; listed as Homo sapiens) [compound 25]	–
+++ (50%-75% = +++)	13 (VLRDNIQGI; listed as Homo sapiens) [compound 13]	–
++ (20%-49% = ++)	336 (GLMDGSPHFL; listed as Homo sapiens) [compound 336]	–
+++ (50%-75% = +++)	76 (ILLDESNFNHFL; listed as Homo sapiens) [compound 76]	–
+++ (50%-75% = +++)	26 (KVDGVVIQL; listed as Homo sapiens) [compound 26]	–
+++ (50%-75% = +++)	51 (LLLDGDFTL; listed as Homo sapiens) [compound 51]	–
+++ (50%-75% = +++)	5 (SLFGQEVYC; listed as Homo sapiens) [compound 5]	–
+++ (50%-75% = +++)	20 (ALDGHLYAI; listed as Homo sapiens) [compound 20]	–
+++ (50%-75% = +++)	24 (FLWNGEDSAL; listed as Homo sapiens) [compound 24]	–
+++ (50%-75% = +++)	330 (FLWPKEVEL; listed as Homo sapiens) [compound 330]	–
++ (20%-49% = ++)	50 (EYALLYHTL; listed as Homo sapiens) [compound 50]	–
++ (20%-49% = ++)	57 (VLISSTVRL; listed as Homo sapiens) [compound 57]	–
+ (<20% = +)	91 (SSLEPQIQPV; listed as Homo sapiens) [compound 91]	–
++ (20%-49% = ++)	67 (GVIETVTSL; listed as Homo sapiens) [compound 67]	–

Peptide exchange (HLA-A*02)	Substance	wells (CD8+ T cells)
–	407 (VYGIRLEHF; listed as Homo sapiens) [compound 407]	+++ (50%-69%= +++)
+ (<20% = +)	90 (GAVAEEVLSSI; listed as Homo sapiens) [compound 90]	–
+++ (50%-75% = +++)	80 (TLDEYLTYL; listed as Homo sapiens) [compound 80]	–
++ (20%-49% = ++)	92 (LLRGPPVARA; listed as Homo sapiens) [compound 92]	–
++ (20%-49% = ++)	82 (VLLRVLIL; listed as Homo sapiens) [compound 82]	–
+++ (50%-75% = +++)	32 (ILADEAFFSV; listed as Homo sapiens) [compound 32]	–
++ (20%-49% = ++)	64 (GLSSSSYEL; listed as Homo sapiens) [compound 64]	–
++ (20%-49% = ++)	11 (GVLKVFLENV; listed as Homo sapiens) [compound 11]	–
+++ (50%-75% = +++)	45 (VLGPTPELV; listed as Homo sapiens) [compound 45]	–
+ (<20% = +)	23 (AQTVVVIKA; listed as Homo sapiens) [compound 23]	–
+++ (50%-75% = +++)	3 (TLLGKQVTL; listed as Homo sapiens) [compound 3]	–
+++ (50%-75% = +++)	33 (LLLPLLPPLSPSLG; listed as Homo sapiens) [compound 33]	–
+++ (50%-75% = +++)	62 (SLFNQEVQI; listed as Homo sapiens) [compound 62]	–
+++ (50%-75% = +++)	19 (TLLPTVLTL; listed as Homo sapiens) [compound 19]	–
+++ (50%-75% = +++)	52 (ELLSSIFFL; listed as Homo sapiens) [compound 52]	–
+++ (50%-75% = +++)	18 (YVLNEEDLQKV; listed as Homo sapiens) [compound 18]	–
++ (20%-49% = ++)	48 (TLDHKPVTV; listed as Homo sapiens) [compound 48]	–
+++ (50%-75% = +++)	72 (GMIGFQVLL; listed as Homo sapiens) [compound 72]	–
+++ (50%-75% = +++)	323 (ILSVVNSQL; listed as Homo sapiens) [compound 323]	–
++ (20%-49% = ++)	81 (VLFLGKLLV; listed as Homo sapiens) [compound 81]	–
++ (20%-49% = ++)	56 (KILDLTRVL; listed as Homo sapiens) [compound 56]	–
+++ (50%-75% = +++)	28 (TLYSMDLMKV; listed as Homo sapiens) [compound 28]	–
+++ (50%-75% = +++)	49 (LLDESKLTL; listed as Homo sapiens) [compound 49]	–
+++ (50%-75% = +++)	40 (SLLALPQDLQA; listed as Homo sapiens) [compound 40]	–
++++ (>=75% = ++++)	22 (MLSDLTLQL; listed as Homo sapiens) [compound 22]	–
